Reference: article PMC5297723

Target: recombinant CMG2-Fc-Apo (rCMG2-Fc-Apo) protein (human) (UniProt P58335)
Test: non-reducing SDS-PAGE

recombinant CMG2-Fc-Apo (rCMG2-Fc-Apo) protein (from UniProt P58335 34-318) (Fc fusion)
stoichiometry N: 2
